# Results: patent US5814612A, “Retinol derivatives and uses thereof” (priority 1992, dated 1998)
# Entries after “also recorded” stand apart in the source; their conditions may differ.
# Legend:
# [1] = system: T cells; assay: T cell activation and proliferation, retinol cofactor requirement; format: cell-based, murine
# Description: They were seeded into 96-well flat-bottom plates at varying cellular densities in a final volume of 100 μl. In control experiments, cells were cultured in medium containing 10% FCS or 3% human serum and 5×10^-5 M 2ME. […] Cultures were carried out in duplicate. Plates were incubated at 37° C. in a humidified 5% CO2 atmosphere. Cellular proliferation was determined by [^3 H] thymidine uptake (0.5 uCi/well; New England Nuclear, Boston, Mass.) after the incubation times indicated for each experiment with a 4 hour labeling pulse. Cells were harvested onto glass filter and [^3 H]TdR incorporation was determined by liquid scintillation counting. The data presented are the means of duplicate or six replicate cultures. The restriction to duplicate measurements was necessary to conserve scarce 14HRR. […] Each experiment was repeated at least twice.
# [2] = system: thymocytes; assay: Proliferation of anti-CD3 activated thymocytes in serum-free ITLB medium; format: cell-based, BALB/c mouse; details: for ability of cytokine to replace retinol: absence of retinol; for growth-stimulating effect, anti-CD3, no Retinol / growth-stimulating effect, anti-CD3, 10^-6 M Retinol: 3 days, IL-1 10, IL-2 2, IL-4 5, IL-6 5, IFN-gamma 40, TNF-alpha 12, IL-2 + IL-4 2/5 U/ml; for growth-stimulating effect, anti-CD3, 10^-6 M Retinol: with 10^-6 M retinol (head), Retinol: stimulating agent none
# Description: FIG. 14A: Purified BALB/c thymocytes were activated with immobilized anti-CD3e antibody and cultivated for four days in ITLB medium with or without retinol (3×10^-6 M), 14HRR (6×10^-7 M) (fresh 14HRR was added every 12 hours), human serum (3%) or FCS (10%) at the cellular densities shown. Proliferation was assayed by tritiated thymidine incorporation into cellular DNA.
# FIG. 14B: BALB/c thymocytes (10^6 /ml) were added to microtiter plates coated with titrated amounts of anti-CD3e antibody with […] retinol or without, as indicated. Proliferation was measured in hexaduplicate wells on day 3 by ^3 H thymidine incorporation assay.
# Purified thymocytes (5×10^5 cells/well) were stimulated by TCR crosslinking with immobilized anti-CD3e antibody (FIG. 15A) or 0.4 μg/ml Con A (FIG. 15B) in serum-free ITLB medium. The indicated amounts of retinoids were added either once at the beginning of the experiment (marked as "1×") or every 12 hours thereafter (marked as "6×"). DNA synthesis was measured after 72 hours by tritiated thymidine uptake as described.
# Purified thymocytes (10^5 cells/well) were activated with anti-CD3 antibody in ITLB medium with or without retinol (3×10^-6 M), 14HRR (6×10^-7, added every 12 hours or human serum (3%)). DNA synthesis was measured daily by a 4 hour pulse of tritiated thymidine.
# Thymocytes (5×10^4 /well) were activated by immobilized anti-CD3 mAb in medium ITLB. Retinol (2×10^-6 M) was added at initiation of culture, or delayed by 12 hours and 24 hours, respectively, or omitted altogether. ^3 H thymidine pulses of 4 hours were used to measure DNA synthesis of hexaduplicate wells.
# Thymuses of 3 to 6-week-old BALB/c mice were teased in serum-free RPMI medium supplemented with 1% BSA, 10^-6 M linoleic acid and antibiotics. Depletion of accessory cells was achieved by two cycles of complement-dependent lysis with a mixture of anti-IA^d (5 μg/ml) and anti-IE^d (1:500 diluted ascites fluid). Briefly, cells were incubated on ice for 30 minutes with Ia antibodies, spun down, resuspended in 1:40 diluted rabbit complement, and incubated at 37° C. for 45 minutes. Incubations and two subsequent washes were carried out with RPMI medium containing 1% BSA. Cell viability was evaluated by trypan blue dye exclusion. To determine the extent of depletion of accessory cells, samples were stained with FITC-conjugated anti-Fc receptor antibody and analyzed by flow cytometry on a FACScan instrument (Becton Dickinson).
# Cells were cultured in serum-free medium, referred to as ITLB, containing RPMI 1640 supplemented with 8×10^-7 M insulin (5 μg/ml), 7×10^-8 M transferrin (5 μg/ml), 2×10^-6 M linoleic acid, 2×10^-6 M delipidated BSA (0.12 mg/ml), 2 mM L-glutamine, 1 mM sodium pyruvate and antibiotics. They were seeded into 96-well flat-bottom plates at varying cellular densities in a final volume of 100 μl. In control experiments, cells were cultured in medium containing 10% FCS or 3% human serum and 5×10^-5 M 2ME. T cells and thymocytes were activated with immobilized, purified anti-mAb CD3e or by the addition of Con A in the presence or absence of different concentrations of retinoids. Unless indicated otherwise, retinoids were replenished every 12 hours to maintain a reasonably constant concentration of these labile compounds in culture. […] Cultures were carried out in duplicate. Plates were incubated at 37° C. in a humidified 5% CO2 atmosphere. Cellular proliferation was determined by [^3 H] thymidine uptake (0.5 uCi/well; New England Nuclear, Boston, Mass.) after the incubation times indicated for each experiment with a 4 hour labeling pulse.
Molecule,ability to substitute for retinol in T cell activation (words) [1],ability of cytokine to replace retinol [2],ability of cytokine to replace retinol ([2]; listed as TNF-α),"growth-stimulating effect, anti-CD3, no Retinol [2]","growth-stimulating effect, anti-CD3, 10^-6 M Retinol [2]","effectiveness relative to retinol ([2]; anti-CD3, 14HRR at 12 hour intervals)",ability of cytokine to replace retinol ([2]; listed as interferon-gamma),effect of cytokine combined with retinol [2],effect of cytokine combined with retinol ([2]; listed as Interferon-gamma)
TNF-alpha,"cannot be satisfied by retinoic acid or interleukins 1, 2, 4 and 6, and TNF-alpha","none of the interleukins tested (IL-1, IL-2, IL-4 and IL-6) nor TNF-alpha are substitutes for retinol",does not,464 ± 95 CPM,"122,905 ± 11,577 CPM",–,–,–,–
CC1=C(/C=C/C(C)=C/C=C/C(C)=C\CO)C(C)(C)CCC1 [13-cis-retinol],can substitute for retinal,–,–,–,–,equally effective as all-trans retinol,–,–,–
IL-6: hrIL-6,–,"None of the four interleukins, IL-1, IL-2, IL-4 or IL-6, was capable of overcoming the requirement for retinal; also recorded: none of the interleukins tested (IL-1, IL-2, IL-4 and IL-6) nor TNF-alpha are substitutes for retinol",–,"1,005 ± 815 CPM","130,590 ± 25,803 CPM",–,–,–,–
"IL-1: Human recombinant IL-1-α (protein, UniProt P01583 113-271, looked up) Interleukin-1 alpha: SAPFSFLSNVKYNFMRIIKYEFILNDALNQSIIRANDQYLTAAALHNLDEAVKFDMGAYKSSKDDAKITVILRISKTQLYVTAQDEDQPVLLKEMPEIPKTITGSETNLLFFWETHGTKNYFTSVAHPNLFIATKQDYWVCLAGGPPSITDFQILENQA",–,"None of the four interleukins, IL-1, IL-2, IL-4 or IL-6, was capable of overcoming the requirement for retinal; also recorded: none of the interleukins tested (IL-1, IL-2, IL-4 and IL-6) nor TNF-alpha are substitutes for retinol",–,959 ± 30 CPM,"118,924 ± 3,051 CPM",–,–,–,–
"IL-4: murine rIL-4 (protein, UniProt P07750 21-140, looked up) Interleukin-4: HIHGCDKNHLREIIGILNEVTGEGTPCTEMDVPNVLTATKNTTESELVCRASKVLRIFYLKHGKTPCLKKNSSVLMELQRLFRAFRCLDSSISCTMNESKSTSLKDFLESLKSIMQMDYS",–,"None of the four interleukins, IL-1, IL-2, IL-4 or IL-6, was capable of overcoming the requirement for retinal; also recorded: none of the interleukins tested (IL-1, IL-2, IL-4 and IL-6) nor TNF-alpha are substitutes for retinol",–,991 ± 105 CPM,"115,849 ± 20,630 CPM",–,–,–,–
"IFN-gamma: mouse recombinant IFN-gamma (protein, UniProt P01580 23-155, looked up) Interferon gamma: HGTVIESLESLNNYFNSSGIDVEEKSLFLDIWRNWQKDGDMKILQSQIISFYLRLFEVLKDNQAISNNISVIESHLITTFFSNSKAKKDAFMSIAKFEVNNPQVQRQAFNELIRVVHQLLPESSLRKRKRSRC",can substitute for retinol,can circumvent the retinol requirement and initiate durable proliferation in the absence of retinol or 14HRR,–,"81,876 ± 11,868 CPM","220,359 ± 27,726 CPM",–,can sustain thymocyte proliferation in the absence of retinol; also recorded: quite efficient in anti-CD3-mediated activation in the absence of retinol,strong additive effects,clear additive effect with retinol
